{"source": "paper PMC12052686", "about": "“NADK tetramer defective mutants affect lung cancer response to chemotherapy via controlling NADK activity” (Genes & Diseases, 2025)", "key": {"[1]": {"molecular_target": "T1, human NADK (cNADK, full-length) (Homo sapiens, UniProt O95544, C349S)", "T1 construct": "full-length, modified pET28a, His tag cleaved by TEV, E. coli BL21, HisTrap / Resource Q / Superdex 200, tetramer", "T1 sequence (O95544 1-446 C349S)": "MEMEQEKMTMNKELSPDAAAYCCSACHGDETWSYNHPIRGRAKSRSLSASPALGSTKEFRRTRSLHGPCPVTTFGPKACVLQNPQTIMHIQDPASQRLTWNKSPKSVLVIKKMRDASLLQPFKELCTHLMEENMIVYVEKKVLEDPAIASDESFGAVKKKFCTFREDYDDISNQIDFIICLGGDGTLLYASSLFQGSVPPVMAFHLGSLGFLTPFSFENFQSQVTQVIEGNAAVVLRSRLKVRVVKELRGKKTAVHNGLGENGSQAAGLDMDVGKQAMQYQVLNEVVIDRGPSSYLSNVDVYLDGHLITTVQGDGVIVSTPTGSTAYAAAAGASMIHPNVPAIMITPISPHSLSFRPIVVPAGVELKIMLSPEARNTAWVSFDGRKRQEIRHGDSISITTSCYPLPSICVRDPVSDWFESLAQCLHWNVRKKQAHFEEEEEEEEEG", "test": "isothermal titration calorimetry", "format": "binding"}, "[2]": {"molecular_target": "the molecule itself", "test": "SEC; lysates of transfected HEK293T cells with endogenous NADK knocked out, Superdex 200 Increase 10/300 GL, 0.5 mL/min; fractions analysed by immunoblotting"}, "[3]": {"molecular_target": "the molecule itself", "test": "cryo-EM structure; single-particle cryo-EM of the purified, substrate-free NADK tetramer (10 mg/mL); 2.54 Å"}}, "data": [{"molecule": "NC(=O)c1ccc[n+]([C@@H]2O[C@H](COP(=O)([O-])OP(=O)(O)OC[C@H]3O[C@@H](n4cnc5c(N)ncnc54)[C@H](O)[C@@H]3O)[C@@H](O)[C@H]2O)c1", "note": "[NAD^+]", "values": [{"measurement": "Kd", "setting": "[1]", "result": 86.9, "unit": "µM"}]}, {"molecule": "N-terminal truncated NADK (95-446) (domain or fragment, human, UniProt O95544 95-446, looked up, also called ΔN95; N-terminal truncation mutant; source: HEK293T with endogenous NADK knocked out, transfected, in lysate) SQRLTWNKSPKSVLVIKKMRDASLLQPFKELCTHLMEENMIVYVEKKVLEDPAIASDESFGAVKKKFCTFREDYDDISNQIDFIICLGGDGTLLYASSLFQGSVPPVMAFHLGSLGFLTPFSFENFQSQVTQVIEGNAAVVLRSRLKVRVVKELRGKKTAVHNGLGENGSQAAGLDMDVGKQAMQYQVLNEVVIDRGPSSYLSNVDVYLDGHLITTVQGDGVIVSTPTGSTAYAAAAGASMIHPNVPAIMITPICPHSLSFRPIVVPAGVELKIMLSPEARNTAWVSFDGRKRQEIRHGDSISITTSCYPLPSICVRDPVSDWFESLAQCLHWNVRKKQAHFEEEEEEEEEG", "values": [{"measurement": "stoichiometry N", "setting": "[2]", "result": 4}]}, {"molecule": "full-length human NADK (NAD+ kinase), purified tetramer (enzyme, UniProt O95544 1-446, looked up, Cloned in a modified pET28a vector; the tetramer peak of the Superdex 200 column was collected for cryo-EM; In the map the protomers are visible only from residues 98, 95, 96 and 98; also called cNADK; cytoplasmic NADK; source: E. coli BL21, purified (HisTrap FF, TEV cleavage, Resource Q, Superdex 200 Increase)) MEMEQEKMTMNKELSPDAAAYCCSACHGDETWSYNHPIRGRAKSRSLSASPALGSTKEFRRTRSLHGPCPVTTFGPKACVLQNPQTIMHIQDPASQRLTWNKSPKSVLVIKKMRDASLLQPFKELCTHLMEENMIVYVEKKVLEDPAIASDESFGAVKKKFCTFREDYDDISNQIDFIICLGGDGTLLYASSLFQGSVPPVMAFHLGSLGFLTPFSFENFQSQVTQVIEGNAAVVLRSRLKVRVVKELRGKKTAVHNGLGENGSQAAGLDMDVGKQAMQYQVLNEVVIDRGPSSYLSNVDVYLDGHLITTVQGDGVIVSTPTGSTAYAAAAGASMIHPNVPAIMITPICPHSLSFRPIVVPAGVELKIMLSPEARNTAWVSFDGRKRQEIRHGDSISITTSCYPLPSICVRDPVSDWFESLAQCLHWNVRKKQAHFEEEEEEEEEG", "values": [{"measurement": "stoichiometry N", "setting": "[3]", "result": 4}]}]}
